Reference: patent US7700318 (AMPROTEIN, dated 2010)

Target: T1, recombinant human IL-1 receptor extracellular domain (human, UniProt P14778 18-336)
T1 construct: extracellular domain; also called in-house mammalian recombinant IL-receptor extracellular domain
T1 sequence (looked up): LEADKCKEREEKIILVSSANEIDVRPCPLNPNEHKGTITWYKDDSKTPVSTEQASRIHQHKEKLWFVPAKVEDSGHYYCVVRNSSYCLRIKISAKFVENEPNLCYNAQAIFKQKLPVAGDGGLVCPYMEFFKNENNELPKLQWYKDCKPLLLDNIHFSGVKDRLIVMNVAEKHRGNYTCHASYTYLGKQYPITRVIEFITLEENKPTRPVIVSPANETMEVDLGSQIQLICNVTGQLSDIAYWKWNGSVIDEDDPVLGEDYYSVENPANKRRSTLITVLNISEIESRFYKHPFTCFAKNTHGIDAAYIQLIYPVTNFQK
Assay: ELISA: test proteins coated on 96-well plate, IL-1 receptor extracellular domain incubated at 37 C, detected with rabbit anti human IL-1 receptor antibodies and goat anti rabbit HRP (FIG. 5)
Procedure: For IL-1 receptor binding assay, recombinant human IL-1 receptor extracellular domain was first produced in house using a mammalian host. TNFRII-Fc-IL-1ra, negative control TNFRII-Fc and positive control IL-1ra (KINERET) have been coated to 96-well plate. IL-1 receptor is then incubated at 37° C. for binding. The binding is detected using rabbit anti human IL-1 receptor extracellular domain antibodies, followed by goat anti rabbit […] conjugated with HRP.

binding result: no binding
B1: TNFRII-Fc (ENBREL) (Fc fusion, UniProt P20333 23-257, looked up)
chain: LPAQVAFTPYAPEPGSTCRLREYYDQTAQMCCSKCSPGQHAKVFCTKTSDTVCDSCEDSTYTQLWNWVPECLSCGSRCSSDQVETQACTREQNRICTCRPGWYCALSKQEGCRLCAPLRKCRPGFGVARPGTETSDVVCKPCAPGTFSNTTSSTDICRPHQICNVVAIPGNASMDAVCTSTSPTRSMAPGAVHLPQPVSTRSQHTQPTPEPSTAPSTSFLLPMGPSPPAEGSTGD
notes: Marketed product; also called marketed TNFRII-Fc (ENBREL); not shown: Fc part of the marketed product
